According to patent US20140105889A1 (published 2014):

T1: human FcγRIIa type H (human, UniProt P12318 36-217)
T1 construct: also called FcgRIIaH; FcγRIIa(H)
T1 sequence: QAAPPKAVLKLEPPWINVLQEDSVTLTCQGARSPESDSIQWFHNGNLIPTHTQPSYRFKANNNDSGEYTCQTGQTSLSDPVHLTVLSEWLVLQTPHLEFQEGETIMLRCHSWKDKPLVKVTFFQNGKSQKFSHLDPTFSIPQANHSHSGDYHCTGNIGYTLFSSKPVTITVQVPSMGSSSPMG

T2: human FcγRIIb (human, UniProt P31994 43-217)
T2 construct: also called FcgRIIb; FcγIIB
T2 sequence: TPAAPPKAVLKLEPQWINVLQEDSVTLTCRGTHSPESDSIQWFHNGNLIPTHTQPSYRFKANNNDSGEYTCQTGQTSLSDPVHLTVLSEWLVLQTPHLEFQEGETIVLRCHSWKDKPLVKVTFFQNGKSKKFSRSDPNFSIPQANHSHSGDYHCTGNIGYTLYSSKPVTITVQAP

T3: human FcγRIIa type R (human, UniProt P12318 36-217)
T3 construct: also called FcgRIIaR; FcγRIIa(R)
T3 chain: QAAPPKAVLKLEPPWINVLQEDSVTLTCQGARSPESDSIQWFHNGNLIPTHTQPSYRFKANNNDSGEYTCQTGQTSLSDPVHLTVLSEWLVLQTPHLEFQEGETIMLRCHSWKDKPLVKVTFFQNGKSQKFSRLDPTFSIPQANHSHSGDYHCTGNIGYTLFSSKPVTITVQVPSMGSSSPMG


Legend:
Test in all cases: SPR (Biacore), FcγR over captured antibody; binding amount / that of IL6R-BF648/IL6R-L x100
[1] = target: T4, human FcγRIIIa type V (human, UniProt P08637 17-208, limits assumed)
T4 construct: Allotype V158 was used; also called FcgRIIIaV; FcγRIIIa(V)
T4 sequence (P08637 other isoform, or with tags, fused parts or gaps limits assumed): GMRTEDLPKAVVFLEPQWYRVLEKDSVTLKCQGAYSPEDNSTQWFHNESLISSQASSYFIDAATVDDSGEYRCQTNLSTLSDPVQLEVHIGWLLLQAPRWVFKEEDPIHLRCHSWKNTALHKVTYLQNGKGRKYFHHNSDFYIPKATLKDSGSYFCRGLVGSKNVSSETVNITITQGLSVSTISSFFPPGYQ
Procedure: (§1) According to the following method, relative binding activities were calculated for the results of analyzing interactions with the respective FcγRs.

[2] = target: T1, human FcγRIIa type H
Procedure: as §1

[3] = target: T2, human FcγRIIb
Procedure: as §1

[4] = target: T5, human FcγRIa (human, UniProt P12314 16-292, limits assumed)
T5 construct: also called FcgRIa; CD64
T5 sequence (P12314 16-292 limits assumed): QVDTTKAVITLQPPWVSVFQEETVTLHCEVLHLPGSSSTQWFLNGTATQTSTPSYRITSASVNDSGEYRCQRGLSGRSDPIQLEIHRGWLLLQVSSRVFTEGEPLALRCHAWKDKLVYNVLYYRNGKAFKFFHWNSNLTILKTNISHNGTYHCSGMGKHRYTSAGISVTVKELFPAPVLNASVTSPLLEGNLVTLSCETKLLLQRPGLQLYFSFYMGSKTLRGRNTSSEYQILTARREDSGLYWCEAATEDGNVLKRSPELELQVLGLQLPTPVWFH
Procedure: as §1

[5] = target: T3, human FcγRIIa type R
Procedure: as §1

| relative binding activity [1] | relative binding activity [2] | relative binding activity [3] | relative binding activity [4] | relative binding activity [5] | Binder |
| --- | --- | --- | --- | --- | --- |
| 114 % of IL6R-BF648/IL6R-L | 143 % of IL6R-BF648/IL6R-L | 133 % of IL6R-BF648/IL6R-L | 86 % of IL6R-BF648/IL6R-L | 238 % of IL6R-BF648/IL6R-L | IL6R-BP143/IL6R-L (antibody, human IgG1) heavy: QVQLQESGPGLVKPSETLSLTCAVSGHSISHDHAWSWVRQPPGEGLEWIGFISYSGITNYNPSLQGRVTISRDNSKNTLYLQMNSLRAEDTAVYYCARSLARTTAMDYWGEGTLVTVSSASTKGPSVFPLAPSSKSTSGGTAALGCLVKDYFPEPVTVSWNSGALTSGVHTFPAVLQSSGLYSLSSVVTVPSSSLGTQTYICNVNHKPSNTKVDKKVEPKSCDKTHTCPPCPAPEYLGGDSVFLFPPKPKDTLMISRTPEVTCVVVDVSHEDPEVKFNWYVDGVEVHNAKTKPREEQYNSTYRVVSVLTVLHQDWLNGKEYKCKVSNAALPAPIEKTISKAKGQPREPQVYTLPPSRDELTKNQVSLTCLVKGFYPSDIAVEWESNGQPENNYKTTPPVLDSDGSFFLYSKLTVDKSRWQQGNVFSCSVMHEALHNHYTQESLSLSP light: DIQMTQSPSSLSASVGDRVTITCRASQDISSYLNWYQQKPGKAPKLLIYYTSRLHSGVPSRFSGSGSGTDFTFTISSLQPEDIATYYCQQGNTLPYTFGQGTKVEIK |
| 95 % of IL6R-BF648/IL6R-L | 98 % of IL6R-BF648/IL6R-L | 138 % of IL6R-BF648/IL6R-L | 68 % of IL6R-BF648/IL6R-L | 111 % of IL6R-BF648/IL6R-L | IL6R-BP129/IL6R-L (antibody, human IgG1) heavy: QVQLQESGPGLVKPSETLSLTCAVSGHSISHDHAWSWVRQPPGEGLEWIGFISYSGITNYNPSLQGRVTISRDNSKNTLYLQMNSLRAEDTAVYYCARSLARTTAMDYWGEGTLVTVSSASTKGPSVFPLAPSSKSTSGGTAALGCLVKDYFPEPVTVSWNSGALTSGVHTFPAVLQSSGLYSLSSVVTVPSSSLGTQTYICNVNHKPSNTKVDKKVEPKSCDKTHTCPPCPAPDLLGGDSVFLFPPKPKDTLMISRTPEVTCVVVDVSHEDPEVKFNWYVDGVEVHNAKTKPREEQDNSTYRVVSVLTVLHQDWLNGKEYKCKVSNKALPKPIEKTISKAKGQPREPQVYTLPPSRDELTKNQVSLTCLVKGFYPSDIAVEWESNGQPENNYKTTPPVLDSDGSFFLYSKLTVDKSRWQQGNVFSCSVMHEALHNHYTQESLSLSP light: DIQMTQSPSSLSASVGDRVTITCRASQDISSYLNWYQQKPGKAPKLLIYYTSRLHSGVPSRFSGSGSGTDFTFTISSLQPEDIATYYCQQGNTLPYTFGQGTKVEIK |
| 114 % of IL6R-BF648/IL6R-L | 151 % of IL6R-BF648/IL6R-L | 137 % of IL6R-BF648/IL6R-L | 41 % of IL6R-BF648/IL6R-L | 174 % of IL6R-BF648/IL6R-L | IL6R-BP133/IL6R-L (antibody, human IgG1) heavy: QVQLQESGPGLVKPSETLSLTCAVSGHSISHDHAWSWVRQPPGEGLEWIGFISYSGITNYNPSLQGRVTISRDNSKNTLYLQMNSLRAEDTAVYYCARSLARTTAMDYWGEGTLVTVSSASTKGPSVFPLAPSSKSTSGGTAALGCLVKDYFPEPVTVSWNSGALTSGVHTFPAVLQSSGLYSLSSVVTVPSSSLGTQTYICNVNHKPSNTKVDKKVEPKSCDKTHTCPPCPAPDYLGGDSVFLFPPKPKDTLMISRTPEVTCVVVDVSHEDPEVKFNWYVDGVEVHNAKTKPREEQYNSTYRVVSVLTVLHQDWLNGKEYKCKVSNKALPKPIEKTISKAKGQPREPQVYTLPPSRDELTKNQVSLTCLVKGFYPSDIAVEWESNGQPENNYKTTPPVLDSDGSFFLYSKLTVDKSRWQQGNVFSCSVMHEALHNHYTQESLSLSP light: DIQMTQSPSSLSASVGDRVTITCRASQDISSYLNWYQQKPGKAPKLLIYYTSRLHSGVPSRFSGSGSGTDFTFTISSLQPEDIATYYCQQGNTLPYTFGQGTKVEIK |
| 120 % of IL6R-BF648/IL6R-L | 130 % of IL6R-BF648/IL6R-L | 150 % of IL6R-BF648/IL6R-L | 91 % of IL6R-BF648/IL6R-L | 191 % of IL6R-BF648/IL6R-L | IL6R-BP132/IL6R-L (antibody, human IgG1) heavy: QVQLQESGPGLVKPSETLSLTCAVSGHSISHDHAWSWVRQPPGEGLEWIGFISYSGITNYNPSLQGRVTISRDNSKNTLYLQMNSLRAEDTAVYYCARSLARTTAMDYWGEGTLVTVSSASTKGPSVFPLAPSSKSTSGGTAALGCLVKDYFPEPVTVSWNSGALTSGVHTFPAVLQSSGLYSLSSVVTVPSSSLGTQTYICNVNHKPSNTKVDKKVEPKSCDKTHTCPPCPAPDLLGGDSVFLFPPKPKDTLMISRTPEVTCVVVDVSHEDPEVKFNWYVDGVEVHNAKTKPREEQYNSTYRVVSVLTVLHQDWLNGKEYKCKVSNAALPKPIEKTISKAKGQPREPQVYTLPPSRDELTKNQVSLTCLVKGFYPSDIAVEWESNGQPENNYKTTPPVLDSDGSFFLYSKLTVDKSRWQQGNVFSCSVMHEALHNHYTQESLSLSP light: DIQMTQSPSSLSASVGDRVTITCRASQDISSYLNWYQQKPGKAPKLLIYYTSRLHSGVPSRFSGSGSGTDFTFTISSLQPEDIATYYCQQGNTLPYTFGQGTKVEIK |

The remaining lines, values behind:

| Binder | relative binding activity [1] | relative binding activity [2] | relative binding activity [3] | relative binding activity [4] | relative binding activity [5] |
| --- | --- | --- | --- | --- | --- |
| IL6R-BP087/IL6R-L (antibody, human IgG1) heavy: QVQLQESGPGLVKPSETLSLTCAVSGHSISHDHAWSWVRQPPGEGLEWIGFISYSGITNYNPSLQGRVTISRDNSKNTLYLQMNSLRAEDTAVYYCARSLARTTAMDYWGEGTLVTVSSASTKGPSVFPLAPSSKSTSGGTAALGCLVKDYFPEPVTVSWNSGALTSGVHTFPAVLQSSGLYSLSSVVTVPSSSLGTQTYICNVNHKPSNTKVDKKVEPKSCDKTHTCPPCPAPEYLGGDSVFLFPPKPKDTLMISRTPEVTCVVVDVSHEDPEVKFNWYVDGVEVHNAKTKPREEQYNSTYRVVSVLTVLHQDWLNGKEYKCKVSNKALPKPIEKTISKAKGQPREPQVYTLPPSRDELTKNQVSLTCLVKGFYPSDIAVEWESNGQPENNYKTTPPVLDSDGSFFLYSKLTVDKSRWQQGNVFSCSVMHEALHNHYTQESLSLSP light: DIQMTQSPSSLSASVGDRVTITCRASQDISSYLNWYQQKPGKAPKLLIYYTSRLHSGVPSRFSGSGSGTDFTFTISSLQPEDIATYYCQQGNTLPYTFGQGTKVEIK | 158 % of IL6R-BF648/IL6R-L | 179 % of IL6R-BF648/IL6R-L | 137 % of IL6R-BF648/IL6R-L | 33 % of IL6R-BF648/IL6R-L | 163 % of IL6R-BF648/IL6R-L |
| IL6R-BP089/IL6R-L (antibody, human IgG1) heavy: QVQLQESGPGLVKPSETLSLTCAVSGHSISHDHAWSWVRQPPGEGLEWIGFISYSGITNYNPSLQGRVTISRDNSKNTLYLQMNSLRAEDTAVYYCARSLARTTAMDYWGEGTLVTVSSASTKGPSVFPLAPSSKSTSGGTAALGCLVKDYFPEPVTVSWNSGALTSGVHTFPAVLQSSGLYSLSSVVTVPSSSLGTQTYICNVNHKPSNTKVDKKVEPKSCDKTHTCPPCPAPEYLGGDSVFLFPPKPKDTLMISRTPEVTCVVVDVSHEDPEVKFNWYVDGVEVHNAKTKPREEQYNSTYRVVSVLTVLHQDWLNGKEYKCKVSNAALPKPIEKTISKAKGQPREPQVYTLPPSRDELTKNQVSLTCLVKGFYPSDIAVEWESNGQPENNYKTTPPVLDSDGSFFLYSKLTVDKSRWQQGNVFSCSVMHEALHNHYTQESLSLSP light: DIQMTQSPSSLSASVGDRVTITCRASQDISSYLNWYQQKPGKAPKLLIYYTSRLHSGVPSRFSGSGSGTDFTFTISSLQPEDIATYYCQQGNTLPYTFGQGTKVEIK | 136 % of IL6R-BF648/IL6R-L | 186 % of IL6R-BF648/IL6R-L | 147 % of IL6R-BF648/IL6R-L | 43 % of IL6R-BF648/IL6R-L | 222 % of IL6R-BF648/IL6R-L |
| IL6R-BP088/IL6R-L (antibody, human IgG1) heavy: QVQLQESGPGLVKPSETLSLTCAVSGHSISHDHAWSWVRQPPGEGLEWIGFISYSGITNYNPSLQGRVTISRDNSKNTLYLQMNSLRAEDTAVYYCARSLARTTAMDYWGEGTLVTVSSASTKGPSVFPLAPSSKSTSGGTAALGCLVKDYFPEPVTVSWNSGALTSGVHTFPAVLQSSGLYSLSSVVTVPSSSLGTQTYICNVNHKPSNTKVDKKVEPKSCDKTHTCPPCPAPELLGDDSVFLFPPKPKDTLMISRTPEVTCVVVDVSHEDPEVKFNWYVDGVEVHNAKTKPREEQYNSTYRVVSVLTVLHQDWLNGKEYKCKVSNAALPKPIEKTISKAKGQPREPQVYTLPPSRDELTKNQVSLTCLVKGFYPSDIAVEWESNGQPENNYKTTPPVLDSDGSFFLYSKLTVDKSRWQQGNVFSCSVMHEALHNHYTQESLSLSP light: DIQMTQSPSSLSASVGDRVTITCRASQDISSYLNWYQQKPGKAPKLLIYYTSRLHSGVPSRFSGSGSGTDFTFTISSLQPEDIATYYCQQGNTLPYTFGQGTKVEIK | 122 % of IL6R-BF648/IL6R-L | 166 % of IL6R-BF648/IL6R-L | 161 % of IL6R-BF648/IL6R-L | 25 % of IL6R-BF648/IL6R-L | 377 % of IL6R-BF648/IL6R-L |
